In US20240285782A1, “METHODS FOR USING BIOADHESIVE AND STERIC INTERACTIONS OF COPOLYMERS WITH AT LEAST TWO MOIETIES TO MINIMIZE ADVERSE EFFECTS MEDIATED BY EXTERNAL INFLUENCES ON CELL, TISSUE, ORGAN SYSTEM, AND ORGANISM BIOLOGY” (priority 2021, published 2024):
Where two headings read alike, the source gives them in different places.

Assays:
[1] = cited from earlier work
corneal cell = details: low dose exposure; cited from earlier work

| Compound | half-life ([1]; after the first infusion) | half-life ([1]; in steady state) | time to reach steady state ([1]; in vivo) | toxicity (positive control, pilot evaluation FIG. 8) (HCE-T cells) | toxicity to cells, corneal cell death (corneal cell) |
| --- | --- | --- | --- | --- | --- |
| Belnatomab mafodotin: ADC cited as an example for half-life | 12 days | 14 days | 70 days | – | – |
| CCN(c1nc(N)c(C(=O)N=C(N)N)nc1Cl)C(C)C [EIPA, 5-(N-ethyl-N-isopropyl)amiloride] | – | – | – | toxic | toxic |
